First the molecules themselves.
B1: siltuximab-TGN 1:1 (antibody, V domains shown)
VH: EVQLVESGGKLLKPGGSLKLSCAASGFTFSSFAMSWFRQSPEKRLEWVAEISSGGSYTYYPDTVTGRFTISRDNAKNTLYLEMSSLRSEDTAMYYCARGLWGYYALDYWGQGTSVTVSS
VL: QIVLIQSPAIMSASPGEKVTMTCSASSSVSYMYWYQQKPGSSPRLLIYDTSNLASGVPVRFSGSGSGTSYSLTISRMEAEDAATYYCQQWSGYPYTFGGGTKLEIK
modifications: Tris-GalNAc-PEG5 (TGN) on accessible primary amines (lysines), not site-specific; coupling ratio 1:1; GPR = 0.2 for the antibody | Tris-GalNAc-PEG5 (TGN) on accessible primary amines (lysines), not site-specific; coupling ratio 1:1; GPR = 0.2 for the antibody
B2: siltuximab (antibody, V domains shown)
VH: B1 VH
VL: B1 VL
B3: siltuximab-TGN 1:5 (antibody, V domains shown)
VH: B1 VH
VL: B1 VL
modifications: Tris-GalNAc-PEG5 (TGN) on accessible primary amines (lysines), not site-specific; coupling ratio 1:5 | Tris-GalNAc-PEG5 (TGN) on accessible primary amines (lysines), not site-specific; coupling ratio 1:5
B4: siltuximab-TGN 1:10 (antibody, V domains shown)
VH: B1 VH
VL: B1 VL
modifications: Tris-GalNAc-PEG5 (TGN) on accessible primary amines (lysines), not site-specific; coupling ratio 1:10 | Tris-GalNAc-PEG5 (TGN) on accessible primary amines (lysines), not site-specific; coupling ratio 1:10
B5: tocilizumab-TGN 1:10 (antibody, V domains shown)
VH: QVQLQESGPGLVRPSQTLSLTCTVSGYSITSDHAWSWVRQPPGRGLEWIGYISYSGITTYNPSLKSRVTMLRDTSKNQFSLRLSSVTAADTAVYYCARSLARTTAMDYWGQGSLVTVSS
VL: DIQMTQSPSSLSASVGDRVTITCRASQDISSYLNWYQQKPGKAPKLLIYYTSRLHSGVPSRFSGSGSGTDFTFTISSLQPEDIATYYCQQGNTLPYTFGQGTKVEIK
modifications: Tris-GalNAc-PEG5 (TGN) on accessible primary amines (lysines), not site-specific; coupling ratio 1:10; GPR 4.75 for the antibody | Tris-GalNAc-PEG5 (TGN) on accessible primary amines (lysines), not site-specific; coupling ratio 1:10; GPR 4.75 for the antibody
B6: tocilizumab (antibody, V domains shown)
VH: B5 VH
VL: B5 VL
B7: tocilizumab-TGN 1:5 (antibody, V domains shown)
VH: B5 VH
VL: B5 VL
modifications: Tris-GalNAc-PEG5 (TGN) on accessible primary amines (lysines), not site-specific; coupling ratio 1:5; GPR 2.51 for the antibody | Tris-GalNAc-PEG5 (TGN) on accessible primary amines (lysines), not site-specific; coupling ratio 1:5; GPR 2.51 for the antibody
B8: tocilizumab-TGN 1:25 (antibody, V domains shown)
VH: B5 VH
VL: B5 VL
modifications: Tris-GalNAc-PEG5 (TGN) on accessible primary amines (lysines), not site-specific; coupling ratio 1:25; GPR of 15.36 for the antibody | Tris-GalNAc-PEG5 (TGN) on accessible primary amines (lysines), not site-specific; coupling ratio 1:25; GPR of 15.36 for the antibody
B9: tocilizumab-TGN 1:1 (antibody, V domains shown)
VH: B5 VH
VL: B5 VL
modifications: Tris-GalNAc-PEG5 (TGN) on accessible primary amines (lysines), not site-specific; coupling ratio 1:1; GPR = 0.35 for the antibody | Tris-GalNAc-PEG5 (TGN) on accessible primary amines (lysines), not site-specific; coupling ratio 1:1; GPR = 0.35 for the antibody
B10: sIL-6R-TGN 1:1 (receptor)
chain: LAPRRCPAQEVARGVLTSLPGDSVTLTCPGVEPEDNATVHWVLRKPAAGSHPSRWAGMGRRLLLRSVQLHDSGNYSCYRAGRPAGTVHLLVDVPPEEPQLSCFRKSPLSNVVCEWGPRSTPSLTTKAVLLVRKFQNSPAEDFQEPCQYSQESQKFSCQLAVPEGDSSFYIVSMCVASSVGSKFSKTQTFQGCGILQPDPPANITVTAVARNPRWLSVTWQDPHSWNSSFYRLRFELRYRAERSKTFTTWMVKDLQHHCVIHDAWSGLRHVVQLRAQEEFGQGEWSEWSPEAMGTPWTESRSPPAENEVSTPMQALTTNKDDDNILFRDSANATSLP
modifications: Tris-GalNAc-PEG5 (TGN) on accessible primary amines (lysines), not site-specific; coupling ratio 1:1; GPR could not be determined
B11: sIL-6R-TGN 1:10 (receptor)
chain: B10 chain
modifications: Tris-GalNAc-PEG5 (TGN) on accessible primary amines (lysines), not site-specific; coupling ratio 1:10; GPR could not be determined
B12: sIL-6R-TGN 1:5 (receptor)
chain: B10 chain
modifications: Tris-GalNAc-PEG5 (TGN) on accessible primary amines (lysines), not site-specific; coupling ratio 1:5; GPR could not be determined

The target in one test is T1, interleukin-6 (IL-6) (human, UniProt P05231 30-212). Description: SPR. In general terms: In SPR one partner is held on a chip, and binding of the other changes the refractive index at the surface.
T1 sequence (P05231 30-212): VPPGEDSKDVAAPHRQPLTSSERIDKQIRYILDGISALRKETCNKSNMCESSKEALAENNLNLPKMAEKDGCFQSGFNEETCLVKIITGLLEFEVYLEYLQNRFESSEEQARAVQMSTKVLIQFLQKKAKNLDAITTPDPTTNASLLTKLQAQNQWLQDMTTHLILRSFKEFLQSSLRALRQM
A word on the Kd: it is a measure of binding affinity in units of concentration. Lower therefore signals tighter binding. Molecule B1 gave a dissociation constant Kd of less than 0.019 nM.
The same measure, in the same setting: the value for B2 was less than 0.022 nM.
Same read-out and setting: the figure for B3 is less than 0.027 nM; for B4 it is less than 0.036 nM.

A further test addresses T2, soluble IL-6 receptor (sIL-6R) (human (from the printed accession …, UniProt P08887 20-355)).
T2 chain: B10 chain
As to the kind of experiment: SPR.
For B5, the Kd was 0.212 nM.
On the same count and under the same terms, the value for B6 was 0.068 nM; that for B7 was 0.093 nM; that for B8 was 0.328 nM.
The same measure, in the same setting: the value for B9 was less than 0.038 nM.

The target of a further test is T1, interleukin-6 (IL-6). As to the kind of experiment: SPR. This is another data set of the same source.
In turn, B10 yielded a dissociation constant Kd of 166 nM.
On the same count and under the same terms, the figure for B11 is 428 nM.
The same measure, in the same setting: the figure for B12 is 230 nM.

For the origin of these results see article PMC13083842 (2026).
